Measurements as given in PMC7498065 (PLoS Biology, 2020).

B1: PGT121-K136 fusion protein (Fab)
VH: QMQLQESGPGLVKPSETLSLTCSVSGASISDSYWSWIRRSPGKGLEWIGYVHKSGDTNYSPSLKSRVNLSLDTSKNQVSLSLVAATAADSGKYYCARTLHGRRIYGSENLYFQGTCPDNYREVDGCDPYDCCLTTWCTNSYCTRYIENLYFQGSEWFTYFYMDVWGNGTQVTVSS
VL: QSVLTQPPDISVAPGETARISCGEKSLGSRAVQWYQHRAGQAPSLIIYNNQDRPSGIPERFSGSPDSPFGTTATLTITSVEAGDEADYYCHIWDSRVPTKWVFGGGTTLTVL
notes: light chain of the human Fab PGT121, as the light chain of m4; Purified on a nickel column, so a His tag is surmised; also called PGT121 Fab-knob domain fusion protein (K136); source: Expi293F, transient co-transfection of heavy and light chain, purified from supernatant (Hi-Trap Nickel excel)
B2: PGT121-K149 fusion protein (Fab)
VH: QMQLQESGPGLVKPSETLSLTCSVSGASISDSYWSWIRRSPGKGLEWIGYVHKSGDTNYSPSLKSRVNLSLDTSKNQVSLSLVAATAADSGKYYCARTLHGRRIYGSENLYFQGSCPDGFSYRSWDDFCCPMVGRCLAPRNGSENLYFQGSEWFTYFYMDVWGNGTQVTVSS
VL: B1 VL
notes: light chain of the human Fab PGT121, as the light chain of m4; Purified on a nickel column, so a His tag is surmised; also called K149-PGT121 construct; source: Expi293F, transient co-transfection of heavy and light chain, purified from supernatant (Hi-Trap Nickel excel)

Tests used:
Details in all cases: both partners purified
Complement component C5 [1] = target: T1, Complement component C5 (Homo sapiens, UniProt P01031); test: FRET or BRET; steady state FRET; 1 nM terbium-labelled C5; titration of AlexaFluor 647-labelled PGT121 knob fusion protein in HBS-EP, with and without 1 μM unlabelled C5; 24 hours; apparent KD (KD app), geomean of 3 experiments
T1 construct: Complement component C5, human, beta chain of the processed serum protein; Complement component C5, human, alpha chain of the processed serum protein; In the FRET assays C5 carried an amine-reactive terbium chelate (dye to protein 4:1); in SPR it was amine-coupled to a CM5 chip; The C5 used for immunisation was bought from CompTech; also called human C5; C5-Tb
T1 sequence (P01031 whole entry, looked up, the tested form may be a part): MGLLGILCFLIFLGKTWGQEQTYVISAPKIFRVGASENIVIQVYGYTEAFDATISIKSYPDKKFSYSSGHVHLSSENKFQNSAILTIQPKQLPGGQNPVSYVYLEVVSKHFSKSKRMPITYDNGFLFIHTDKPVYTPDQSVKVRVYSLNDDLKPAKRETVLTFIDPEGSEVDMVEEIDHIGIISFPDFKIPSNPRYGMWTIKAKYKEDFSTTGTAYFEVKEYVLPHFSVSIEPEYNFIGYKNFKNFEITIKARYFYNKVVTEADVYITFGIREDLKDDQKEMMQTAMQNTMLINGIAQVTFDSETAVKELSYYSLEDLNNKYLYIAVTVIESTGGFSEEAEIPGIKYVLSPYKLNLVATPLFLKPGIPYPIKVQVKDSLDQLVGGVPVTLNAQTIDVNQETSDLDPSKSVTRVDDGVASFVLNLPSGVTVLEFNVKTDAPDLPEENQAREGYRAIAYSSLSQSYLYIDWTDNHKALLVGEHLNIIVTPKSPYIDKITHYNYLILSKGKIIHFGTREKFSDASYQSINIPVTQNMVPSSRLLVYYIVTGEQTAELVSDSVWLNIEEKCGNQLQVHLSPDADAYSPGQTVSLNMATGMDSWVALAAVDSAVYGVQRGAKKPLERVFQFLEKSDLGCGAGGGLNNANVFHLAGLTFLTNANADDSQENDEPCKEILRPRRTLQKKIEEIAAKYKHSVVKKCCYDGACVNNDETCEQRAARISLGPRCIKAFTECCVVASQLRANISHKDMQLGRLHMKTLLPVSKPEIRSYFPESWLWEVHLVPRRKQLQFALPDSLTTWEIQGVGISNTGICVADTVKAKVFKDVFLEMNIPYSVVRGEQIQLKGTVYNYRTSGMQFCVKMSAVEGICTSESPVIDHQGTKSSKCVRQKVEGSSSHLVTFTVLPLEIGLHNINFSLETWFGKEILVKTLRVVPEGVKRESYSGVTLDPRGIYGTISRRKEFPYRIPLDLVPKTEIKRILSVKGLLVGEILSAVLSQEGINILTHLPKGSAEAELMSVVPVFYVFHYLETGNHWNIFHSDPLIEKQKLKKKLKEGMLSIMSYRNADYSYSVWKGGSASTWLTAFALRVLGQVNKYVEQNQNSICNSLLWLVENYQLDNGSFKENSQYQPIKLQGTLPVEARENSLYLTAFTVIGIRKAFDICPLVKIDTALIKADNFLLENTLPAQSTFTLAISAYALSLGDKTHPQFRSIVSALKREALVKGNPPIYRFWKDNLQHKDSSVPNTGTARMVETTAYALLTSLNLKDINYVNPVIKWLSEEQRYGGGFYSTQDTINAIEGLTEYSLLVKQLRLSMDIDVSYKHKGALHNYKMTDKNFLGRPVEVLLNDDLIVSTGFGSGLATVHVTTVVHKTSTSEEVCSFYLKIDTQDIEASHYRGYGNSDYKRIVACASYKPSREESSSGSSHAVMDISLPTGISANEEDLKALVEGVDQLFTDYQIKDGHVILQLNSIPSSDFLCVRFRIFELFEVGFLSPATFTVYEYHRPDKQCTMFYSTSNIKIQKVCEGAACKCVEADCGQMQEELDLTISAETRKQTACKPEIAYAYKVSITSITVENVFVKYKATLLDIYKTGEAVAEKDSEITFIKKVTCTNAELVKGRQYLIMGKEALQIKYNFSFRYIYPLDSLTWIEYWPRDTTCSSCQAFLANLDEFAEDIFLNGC

[2] = target: T2, human complement component C3 (Homo sapiens, UniProt P01024); test: SPR; Biacore single-cycle kinetics counter screen; C3 amine-coupled to CM5 (minimal immobilisation, 40-55 RU); PGT121 knob fusion proteins as analytes
T2 construct: Complement component C3, human, beta chain of the processed serum protein; Complement component C3, human, alpha chain of the processed serum protein; source: bought: CompTech
T2 sequence (P01024 whole entry, looked up, the tested form may be a part): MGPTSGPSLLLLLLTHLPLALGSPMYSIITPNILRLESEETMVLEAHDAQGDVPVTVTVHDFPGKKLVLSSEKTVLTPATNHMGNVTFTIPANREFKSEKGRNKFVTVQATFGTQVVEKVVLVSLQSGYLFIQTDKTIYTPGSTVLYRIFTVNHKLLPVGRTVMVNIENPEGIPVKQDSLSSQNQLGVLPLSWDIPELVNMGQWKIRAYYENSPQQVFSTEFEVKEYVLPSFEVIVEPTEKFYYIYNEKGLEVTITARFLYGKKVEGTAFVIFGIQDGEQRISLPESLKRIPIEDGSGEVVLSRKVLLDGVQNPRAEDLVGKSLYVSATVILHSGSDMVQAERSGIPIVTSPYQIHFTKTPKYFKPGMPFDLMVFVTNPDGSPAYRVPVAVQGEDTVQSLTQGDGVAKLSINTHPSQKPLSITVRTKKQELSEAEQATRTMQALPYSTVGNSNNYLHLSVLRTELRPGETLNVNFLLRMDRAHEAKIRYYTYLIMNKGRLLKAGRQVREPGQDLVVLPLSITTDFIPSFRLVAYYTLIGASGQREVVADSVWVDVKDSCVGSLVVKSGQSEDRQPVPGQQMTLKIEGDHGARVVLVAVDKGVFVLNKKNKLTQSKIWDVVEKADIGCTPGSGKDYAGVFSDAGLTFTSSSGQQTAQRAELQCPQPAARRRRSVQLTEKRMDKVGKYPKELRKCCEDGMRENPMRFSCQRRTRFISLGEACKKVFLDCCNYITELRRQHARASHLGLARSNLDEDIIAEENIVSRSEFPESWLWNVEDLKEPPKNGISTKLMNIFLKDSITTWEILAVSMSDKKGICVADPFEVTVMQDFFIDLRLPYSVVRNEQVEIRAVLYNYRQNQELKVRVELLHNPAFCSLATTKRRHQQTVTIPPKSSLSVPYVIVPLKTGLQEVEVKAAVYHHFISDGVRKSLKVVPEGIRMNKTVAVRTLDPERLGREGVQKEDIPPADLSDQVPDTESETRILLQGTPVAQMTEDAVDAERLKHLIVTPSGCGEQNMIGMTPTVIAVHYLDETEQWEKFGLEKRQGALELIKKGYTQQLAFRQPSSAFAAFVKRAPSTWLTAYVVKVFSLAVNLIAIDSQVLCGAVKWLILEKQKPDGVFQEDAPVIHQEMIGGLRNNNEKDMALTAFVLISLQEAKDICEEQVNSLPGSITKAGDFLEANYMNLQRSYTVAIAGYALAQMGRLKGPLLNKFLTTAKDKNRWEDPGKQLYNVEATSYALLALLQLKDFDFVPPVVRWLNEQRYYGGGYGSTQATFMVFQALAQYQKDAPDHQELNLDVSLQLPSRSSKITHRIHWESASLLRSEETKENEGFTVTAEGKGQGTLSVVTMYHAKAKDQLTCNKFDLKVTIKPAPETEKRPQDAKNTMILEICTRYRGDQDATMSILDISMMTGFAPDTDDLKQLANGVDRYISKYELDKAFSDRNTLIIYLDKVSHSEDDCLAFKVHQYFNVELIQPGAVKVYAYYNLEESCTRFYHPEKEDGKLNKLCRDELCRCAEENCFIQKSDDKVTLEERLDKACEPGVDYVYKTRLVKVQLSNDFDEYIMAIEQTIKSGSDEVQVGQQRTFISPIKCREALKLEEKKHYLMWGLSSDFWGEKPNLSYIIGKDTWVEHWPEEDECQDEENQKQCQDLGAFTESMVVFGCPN

Complement component C5 [3] = target: T1, Complement component C5; test: SPR; Biacore 8K single-cycle kinetics; C5 amine-coupled to CM5 (minimal immobilisation, 100-160 RU; 50-85 RU for PGT121-K149); PGT121 knob fusion proteins as analytes, 1 μM to 1.37 nM in HBS-EP; 40 μL/min (100 μL/min for K149); dissociation 10,000 s; 1:1 model; mean of 3 experiments

Binder | Kd (Complement component C5 [1]) | binding result [2] | koff (Complement component C5 [3])
B1 | 40 nM | no binding (tested: 1 μM) | < 1e-05 s⁻¹
B2 | 66 nM | no binding (tested: 1 μM) | 
